Reference: the supplement of paper PMC10266784

B1: library; numbered along this chain (parent)
chain: MAAAAAAAAEQQSSNGPVKKSMREKAVERRSVNKEHNSNFKAGYIPIDEDRLHKTGLRGRKGNLAICVIILLFILAVINLIITLVIWAVIRIGPNGCDSMEFHESGLLRFKQVSDMGVIHPLYKSTVGGRRNENLVITGNNQPIVFQQGTTKLSVENNKTSITSDIGMQFFDPRTQNILFSTDYETHEFHLPSGVKSLNVQKASTERITSNATSDLNIKVDGRAIVRGNEGVFIMGKTIEFHMGGNMELKAENSIILNGSVMVSTTRLPSSSSGDQLGSGDWVRYKLCMCADGTLFKVQVTSQNMGCQISDNPCGNTH

Variants of: B1
Assay: SGCB cell-surface expression functional score (HA stain, bin4 vs bin1, normalised to synonymous) (log10 ratio); higher = more cell-surface SGCB (functional)
Method in brief: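 Sorting and sequencing yield the functional score, defined as the log ratio of a variant's highest-bin frequency to its lowest-bin frequency, with the median taken over codons and replicate transductions. The libraries, codon-saturation sets of HA-tagged, YFP-fused human beta-sarcoglycan, went into HEK293 cells stably carrying alpha-, gamma- and delta-sarcoglycan by duplicate lentiviral transduction at MOI <0.1. Cells were stained on ice with Alexa Fluor 647 anti-HA, fixed and split into four 5% intensity bins, and synonymous variants were scaled per section to mean 0, SD 0.5.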

Variant | SGCB cell-surface expression functional score (log10)
MAAAAAAAAEQQSSNGPVKKSMREKAVERRSVNKEHNSNFKAGYIPIDEDRLHKTGLRGRKGNLAICVIILLFILAVINLIITLVIWAVIRIGPNGCDSMEFHESGLLRFKQVSDMGVIHPLYKSTVGGRRNENLVITGNNQPIVFQQGTTKLSVENNKTSITSDIGMQFFDPRTQNILFSTDYETHEFHLPSGVKSLNVQKASTERITSNATSDLNIKVDGRAIVRGNEGVFIMGKTIEFHMGGNMELKAENSIILNGSVMVSTTRLPSSSSGDQLGSGDWVRYKLCMCADGTLFKVQVTSQVMGCQISDNPCGNTH [N304V] | -1.11
MAAAAAAAAEQQSSNGPVKKSMREKAVERRSVNKEHNSNFKAGYIPIDEDRLHKTGLRGRKGNLAICVIILLFILAVINLIITLVIWAVIRIGPNGCDSMEFHESGLLRFKQVSDMGVIHPLYKSTVGGRRNENLVITGNNQPIVFQQGTTKLSVENNKTSITSDIGMQFFDPRTQNILFSTDYETHEFHLPSGVKSLNVQKASTERITSNATSDLNIKVDGRAIVRGNEGVFIMGKTIEFHMGGNMELKAENSIILNGSVMVSTTRLPSSSSGDQLGSGDWVRYKLCMCADGTLFKVQVTSQSMGCQISDNPCGNTH [N304S] | -0.45
MAAAAAAAAEQQSSNGPVKKSMREKAVERRSVNKEHNSNFKAGYIPIDEDRLHKTGLRGRKGNLAICVIILLFILAVINLIITLVIWAVIRIGPNGCDSMEFHESGLLRFKQVSDMGVIHPLYKSTVGGRRNENLVITGNNQPIVFQQGTTKLSVENNKTSITSDIGMQFFDPRTQNILFSTDYETHEFHLPSGVKSLNVQKASTERITSNATSDLNIKVDGRAIVRGNEGVFIMGKTIEFHMGGNMELKAENSIILNGSVMVSTTRLPSSSSGDQLGSGDWVRYKLCMCADGTLFKVQVTSQTMGCQISDNPCGNTH [N304T] | -0.51
MAAAAAAAAEQQSSNGPVKKSMREKAVERRSVNKEHNSNFKAGYIPIDEDRLHKTGLRGRKGNLAICVIILLFILAVINLIITLVIWAVIRIGPNGCDSMEFHESGLLRFKQVSDMGVIHPLYKSTVGGRRNENLVITGNNQPIVFQQGTTKLSVENNKTSITSDIGMQFFDPRTQNILFSTDYETHEFHLPSGVKSLNVQKASTERITSNATSDLNIKVDGRAIVRGNEGVFIMGKTIEFHMGGNMELKAENSIILNGSVMVSTTRLPSSSSGDQLGSGDWVRYKLCMCADGTLFKVQVTSQWMGCQISDNPCGNTH [N304W] | 0.2
MAAAAAAAAEQQSSNGPVKKSMREKAVERRSVNKEHNSNFKAGYIPIDEDRLHKTGLRGRKGNLAICVIILLFILAVINLIITLVIWAVIRIGPNGCDSMEFHESGLLRFKQVSDMGVIHPLYKSTVGGRRNENLVITGNNQPIVFQQGTTKLSVENNKTSITSDIGMQFFDPRTQNILFSTDYETHEFHLPSGVKSLNVQKASTERITSNATSDLNIKVDGRAIVRGNEGVFIMGKTIEFHMGGNMELKAENSIILNGSVMVSTTRLPSSSSGDQLGSGDWVRYKLCMCADGTLFKVQVTSQYMGCQISDNPCGNTH [N304Y] | -0.11
MAAAAAAAAEQQSSNGPVKKSMREKAVERRSVNKEHNSNFKAGYIPIDEDRLHKTGLRGRKGNLAICVIILLFILAVINLIITLVIWAVIRIGPNGCDSMEFHESGLLRFKQVSDMGVIHPLYKSTVGGRRNENLVITGNNQPIVFQQGTTKLSVENNKTSITSDIGMQFFDPRTQNILFSTDYETHEFHLPSGVKSLNVQKASTERITSNATSDLNIKVDGRAIVRGNEGVFIMGKTIEFHMGGNMELKAENSIILNGSVMVSTTRLPSSSSGDQLGSGDWVRYKLCMCADGTLFKVQVTSQNGGCQISDNPCGNTH [M305G] | -0.51
MAAAAAAAAEQQSSNGPVKKSMREKAVERRSVNKEHNSNFKAGYIPIDEDRLHKTGLRGRKGNLAICVIILLFILAVINLIITLVIWAVIRIGPNGCDSMEFHESGLLRFKQVSDMGVIHPLYKSTVGGRRNENLVITGNNQPIVFQQGTTKLSVENNKTSITSDIGMQFFDPRTQNILFSTDYETHEFHLPSGVKSLNVQKASTERITSNATSDLNIKVDGRAIVRGNEGVFIMGKTIEFHMGGNMELKAENSIILNGSVMVSTTRLPSSSSGDQLGSGDWVRYKLCMCADGTLFKVQVTSQNPGCQISDNPCGNTH [M305P] | -0.21
MAAAAAAAAEQQSSNGPVKKSMREKAVERRSVNKEHNSNFKAGYIPIDEDRLHKTGLRGRKGNLAICVIILLFILAVINLIITLVIWAVIRIGPNGCDSMEFHESGLLRFKQVSDMGVIHPLYKSTVGGRRNENLVITGNNQPIVFQQGTTKLSVENNKTSITSDIGMQFFDPRTQNILFSTDYETHEFHLPSGVKSLNVQKASTERITSNATSDLNIKVDGRAIVRGNEGVFIMGKTIEFHMGGNMELKAENSIILNGSVMVSTTRLPSSSSGDQLGSGDWVRYKLCMCADGTLFKVQVTSQNKGCQISDNPCGNTH [M305K] | 0.09
MAAAAAAAAEQQSSNGPVKKSMREKAVERRSVNKEHNSNFKAGYIPIDEDRLHKTGLRGRKGNLAICVIILLFILAVINLIITLVIWAVIRIGPNGCDSMEFHESGLLRFKQVSDMGVIHPLYKSTVGGRRNENLVITGNNQPIVFQQGTTKLSVENNKTSITSDIGMQFFDPRTQNILFSTDYETHEFHLPSGVKSLNVQKASTERITSNATSDLNIKVDGRAIVRGNEGVFIMGKTIEFHMGGNMELKAENSIILNGSVMVSTTRLPSSSSGDQLGSGDWVRYKLCMCADGTLFKVQVTSQNCGCQISDNPCGNTH [M305C] | -0.18
MAAAAAAAAEQQSSNGPVKKSMREKAVERRSVNKEHNSNFKAGYIPIDEDRLHKTGLRGRKGNLAICVIILLFILAVINLIITLVIWAVIRIGPNGCDSMEFHESGLLRFKQVSDMGVIHPLYKSTVGGRRNENLVITGNNQPIVFQQGTTKLSVENNKTSITSDIGMQFFDPRTQNILFSTDYETHEFHLPSGVKSLNVQKASTERITSNATSDLNIKVDGRAIVRGNEGVFIMGKTIEFHMGGNMELKAENSIILNGSVMVSTTRLPSSSSGDQLGSGDWVRYKLCMCADGTLFKVQVTSQNNGCQISDNPCGNTH [M305N] | -1.05
MAAAAAAAAEQQSSNGPVKKSMREKAVERRSVNKEHNSNFKAGYIPIDEDRLHKTGLRGRKGNLAICVIILLFILAVINLIITLVIWAVIRIGPNGCDSMEFHESGLLRFKQVSDMGVIHPLYKSTVGGRRNENLVITGNNQPIVFQQGTTKLSVENNKTSITSDIGMQFFDPRTQNILFSTDYETHEFHLPSGVKSLNVQKASTERITSNATSDLNIKVDGRAIVRGNEGVFIMGKTIEFHMGGNMELKAENSIILNGSVMVSTTRLPSSSSGDQLGSGDWVRYKLCMCADGTLFKVQVTSQNQGCQISDNPCGNTH [M305Q] | -0.28
MAAAAAAAAEQQSSNGPVKKSMREKAVERRSVNKEHNSNFKAGYIPIDEDRLHKTGLRGRKGNLAICVIILLFILAVINLIITLVIWAVIRIGPNGCDSMEFHESGLLRFKQVSDMGVIHPLYKSTVGGRRNENLVITGNNQPIVFQQGTTKLSVENNKTSITSDIGMQFFDPRTQNILFSTDYETHEFHLPSGVKSLNVQKASTERITSNATSDLNIKVDGRAIVRGNEGVFIMGKTIEFHMGGNMELKAENSIILNGSVMVSTTRLPSSSSGDQLGSGDWVRYKLCMCADGTLFKVQVTSQNIGCQISDNPCGNTH [M305I] | 0.19
MAAAAAAAAEQQSSNGPVKKSMREKAVERRSVNKEHNSNFKAGYIPIDEDRLHKTGLRGRKGNLAICVIILLFILAVINLIITLVIWAVIRIGPNGCDSMEFHESGLLRFKQVSDMGVIHPLYKSTVGGRRNENLVITGNNQPIVFQQGTTKLSVENNKTSITSDIGMQFFDPRTQNILFSTDYETHEFHLPSGVKSLNVQKASTERITSNATSDLNIKVDGRAIVRGNEGVFIMGKTIEFHMGGNMELKAENSIILNGSVMVSTTRLPSSSSGDQLGSGDWVRYKLCMCADGTLFKVQVTSQNRGCQISDNPCGNTH [M305R] | -0.25
MAAAAAAAAEQQSSNGPVKKSMREKAVERRSVNKEHNSNFKAGYIPIDEDRLHKTGLRGRKGNLAICVIILLFILAVINLIITLVIWAVIRIGPNGCDSMEFHESGLLRFKQVSDMGVIHPLYKSTVGGRRNENLVITGNNQPIVFQQGTTKLSVENNKTSITSDIGMQFFDPRTQNILFSTDYETHEFHLPSGVKSLNVQKASTERITSNATSDLNIKVDGRAIVRGNEGVFIMGKTIEFHMGGNMELKAENSIILNGSVMVSTTRLPSSSSGDQLGSGDWVRYKLCMCADGTLFKVQVTSQNHGCQISDNPCGNTH [M305H] | -0.9
MAAAAAAAAEQQSSNGPVKKSMREKAVERRSVNKEHNSNFKAGYIPIDEDRLHKTGLRGRKGNLAICVIILLFILAVINLIITLVIWAVIRIGPNGCDSMEFHESGLLRFKQVSDMGVIHPLYKSTVGGRRNENLVITGNNQPIVFQQGTTKLSVENNKTSITSDIGMQFFDPRTQNILFSTDYETHEFHLPSGVKSLNVQKASTERITSNATSDLNIKVDGRAIVRGNEGVFIMGKTIEFHMGGNMELKAENSIILNGSVMVSTTRLPSSSSGDQLGSGDWVRYKLCMCADGTLFKVQVTSQNAGCQISDNPCGNTH [M305A] | -0.71
MAAAAAAAAEQQSSNGPVKKSMREKAVERRSVNKEHNSNFKAGYIPIDEDRLHKTGLRGRKGNLAICVIILLFILAVINLIITLVIWAVIRIGPNGCDSMEFHESGLLRFKQVSDMGVIHPLYKSTVGGRRNENLVITGNNQPIVFQQGTTKLSVENNKTSITSDIGMQFFDPRTQNILFSTDYETHEFHLPSGVKSLNVQKASTERITSNATSDLNIKVDGRAIVRGNEGVFIMGKTIEFHMGGNMELKAENSIILNGSVMVSTTRLPSSSSGDQLGSGDWVRYKLCMCADGTLFKVQVTSQNDGCQISDNPCGNTH [M305D] | -0.25
MAAAAAAAAEQQSSNGPVKKSMREKAVERRSVNKEHNSNFKAGYIPIDEDRLHKTGLRGRKGNLAICVIILLFILAVINLIITLVIWAVIRIGPNGCDSMEFHESGLLRFKQVSDMGVIHPLYKSTVGGRRNENLVITGNNQPIVFQQGTTKLSVENNKTSITSDIGMQFFDPRTQNILFSTDYETHEFHLPSGVKSLNVQKASTERITSNATSDLNIKVDGRAIVRGNEGVFIMGKTIEFHMGGNMELKAENSIILNGSVMVSTTRLPSSSSGDQLGSGDWVRYKLCMCADGTLFKVQVTSQNEGCQISDNPCGNTH [M305E] | 0.04
MAAAAAAAAEQQSSNGPVKKSMREKAVERRSVNKEHNSNFKAGYIPIDEDRLHKTGLRGRKGNLAICVIILLFILAVINLIITLVIWAVIRIGPNGCDSMEFHESGLLRFKQVSDMGVIHPLYKSTVGGRRNENLVITGNNQPIVFQQGTTKLSVENNKTSITSDIGMQFFDPRTQNILFSTDYETHEFHLPSGVKSLNVQKASTERITSNATSDLNIKVDGRAIVRGNEGVFIMGKTIEFHMGGNMELKAENSIILNGSVMVSTTRLPSSSSGDQLGSGDWVRYKLCMCADGTLFKVQVTSQNLGCQISDNPCGNTH [M305L] | -0.06
MAAAAAAAAEQQSSNGPVKKSMREKAVERRSVNKEHNSNFKAGYIPIDEDRLHKTGLRGRKGNLAICVIILLFILAVINLIITLVIWAVIRIGPNGCDSMEFHESGLLRFKQVSDMGVIHPLYKSTVGGRRNENLVITGNNQPIVFQQGTTKLSVENNKTSITSDIGMQFFDPRTQNILFSTDYETHEFHLPSGVKSLNVQKASTERITSNATSDLNIKVDGRAIVRGNEGVFIMGKTIEFHMGGNMELKAENSIILNGSVMVSTTRLPSSSSGDQLGSGDWVRYKLCMCADGTLFKVQVTSQNFGCQISDNPCGNTH [M305F] | -0.74
